To fix the notation:
B1: UBQLN2 UBA domain (UBQLN2 571-624) (domain or fragment, human, UniProt Q9UHD9 571-624, looked up)
chain: NAPQLPNPEVRFQQQLEQLNAMGFLNREANLQALIATGGDINAAIERLLGSQPS
B2: UBQLN2 248-576 (domain or fragment, human, UniProt Q9UHD9 248-576, looked up)
chain: MRNQDLALSNLESIPGGYNALRRMYTDIQEPMLNAAQEQFGGNPFASVGSSSSSGEGTQPSRTENRDPLPNPWAPPPATQSSATTSTTTSTGSGSGNSSSNATGNTVAAANYVASIFSTPGMQSLLQQITENPQLIQNMLSAPYMRSMMQSLSQNPDLAAQMMLNSPLFTANPQLQEQMRPQLPAFLQQMQNPDTLSAMSNPRAMQALMQIQQGLQTLATEAPGLIPSFTPGVGVGVLGTAIGPVGPVTPIGPIGPIVPFTPIGPIGPIGPTGPAAPPGSTGSGGPTGPTVSSAAPSETTSPTSESGPNQQFIQQMVQALAGANAPQLP
B3: UBQLN2 109-576 (domain or fragment, human, UniProt Q9UHD9 109-576, looked up)
chain: QGQSTQPSNAAGTNTTSASTPRSNSTPISTNSNPFGLGSLGGLAGLSSLGLSSTNFSELQSQMQQQLMASPEMMIQIMENPFVQSMLSNPDLMRQLIMANPQMQQLIQRNPEISHLLNNPDIMRQTLEIARNPAMMQEMMRNQDLALSNLESIPGGYNALRRMYTDIQEPMLNAAQEQFGGNPFASVGSSSSSGEGTQPSRTENRDPLPNPWAPPPATQSSATTSTTTSTGSGSGNSSSNATGNTVAAANYVASIFSTPGMQSLLQQITENPQLIQNMLSAPYMRSMMQSLSQNPDLAAQMMLNSPLFTANPQLQEQMRPQLPAFLQQMQNPDTLSAMSNPRAMQALMQIQQGLQTLATEAPGLIPSFTPGVGVGVLGTAIGPVGPVTPIGPIGPIVPFTPIGPIGPIGPTGPAAPPGSTGSGGPTGPTVSSAAPSETTSPTSESGPNQQFIQQMVQALAGANAPQLP
B4: UBQLN2 UBL domain (UBQLN2 1-107) (domain or fragment, human, UniProt Q9UHD9 1-107, looked up)
chain: MAENGESSGPPRPSRGPAAAQGSAAAPAEPKIIKVTVKTPKEKEEFAVPENSSVQQFKEAISKRFKSQTDQLVLIFAGKILKDQDTLIQHGIHDGLTVHLVIKSQNR

What all share (experiment): NMR titration
Test [1] addresses B4.
Test [2] concerns the target B4. This is another data set of the same source.
Test [3] deals with B1.
Test [4] concerns the target B3.
In a further test the target is UBQLN2 379-576 (human, UniProt Q9UHD9 379-576).
The target in the test “UBQLN2 248-576” is B2.
A further test has as its target UBQLN2 178-576 (human, UniProt Q9UHD9 178-576).
For test [5], the target named is B3. The source holds these as a separate data set.

Several values for one entry are separate records, joined by “and”; a condition that tells them apart may be missing. Equal entries are not always repeated. Where two headings read alike, the source gives them in different places.

These results are taken from publication doi:10.1101/2021.02.22.432116 (bioRxiv, 2021).

The term Kd denotes the concentration at which binding is half-saturated.

Regarding B1, the dissociation constant (Kd) in test [1] is 178 µM and 210 µM.
For B2, the “UBL peak intensity relative to isolated UBL” value in test [2] stood at 70%.
In the case of B3, in test [3], the “UBA peak intensity relative to isolated UBA” value was determined as 60%.
Take B4: the binding result with UBQLN2 109-576 [4], with UBQLN2 379-576, with UBQLN2 248-576 and in the test with UBQLN2 178-576 was “binds” each time.

B5: UBQLN2 UBL I80A (domain or fragment, human, UniProt Q9UHD9 1-107, looked up)
chain: MAENGESSGPPRPSRGPAAAQGSAAAPAEPKIIKVTVKTPKEKEEFAVPENSSVQQFKEAISKRFKSQTDQLVLIFAGKALKDQDTLIQHGIHDGLTVHLVIKSQNR
Turning to B5, the binding result in the test with UBQLN2 109-576 [5] is on record as “binds”.
